The record followed here is patent US20110027820A1 (GEORGIA TECH RESEARCH, published 2011).

For this experiment, the target named is T1, Gal4 DNA binding domain (DBD) fused to the RXR ligand binding domain (GBD:RXR) (yeast; human, UniProt P04386 1-147; P19793 203-462, limits assumed).
T1 construct: Expressed inside yeast (PJ69-4A or MaV103) from plasmid pGBDRXR; The order DBD then LBD follows the name GBD:RXR; also called wild-type GBD:RXR; product of pGBDRXR
As to the kind of experiment: yeast two-hybrid type growth selection (chemical complementation), PJ69-4A on SC-Ade plates with 10^-5 M 9cRA.

Procedure: The same colony was used for streaking on all the plates, ending with a SC plate to confirm efficient transfer of the cells to each plate. Both selective and non-selective plates were incubated at 30° C. for two days. Each set of genetic selection plates was replicated at least once.

B1: Gal4 activation domain (GAD) without a coactivator domain (other, yeast, UniProt P04386 768-881, looked up)
chain: ANFNQSGNIADSSLSFTFTNSSNGPNLITTQTNSQALSQPIASSNVHDNFMNNEITASKIDDGNNSKPLSPGWTDQTAYNAFGITTGMFNTTTMDDVYNYLFDDEDTPPNPKKE
notes: range 768-881; Control expressed from pGAD10; also called Gal4 AD only; product of pGAD10
In the case of B1, the binding result is “no binding”.
